Laboratory results published in the Human Domainome abundance scans (Beltran et al. 2025).
± gives the uncertainty stated by the source.

B1: Chromodomain-helicase-DNA-binding protein 4, residues 444 to 496; numbered along this chain, Q14839 (parent)
chain: EDDHHMEFCRVCKDGGELLCCDTCPSSYHIHCLNPPLPEIPNGEWLCPRCTCP

Variants of: B1
Experiment: abundance fitness (aPCA) (normalised: wild type 0, dead -1); higher = more abundant; growth selection in yeast, the domain comes from the species named
Conditions: Homo sapiens
With G16D the abundance fitness was -0.275 ± 0.057. In the case of G16A, the abundance fitness is reported as -0.558 ± 0.078. Variant G16V has an abundance fitness of -0.842 ± 0.1. G16S gave an abundance fitness of -0.279 ± 0.053. Variant G16M has an abundance fitness of -0.579 ± 0.089. With G16Q the abundance fitness was -0.559 ± 0.059. Work on G16C yielded an abundance fitness of -0.985 ± 0.19. In the case of G16I, the abundance fitness is reported as -0.74 ± 0.093. Variant G16W has an abundance fitness of -0.906 ± 0.12. G16R showed an abundance fitness of -0.424 ± 0.073. G16H gave an abundance fitness of -0.831 ± 0.055. G16F gave an abundance fitness of -0.556 ± 0.099. For G16K, the abundance fitness was -0.143 ± 0.054. G16T showed an abundance fitness of -0.432 ± 0.056. In the case of G16L, the abundance fitness is reported as -0.7 ± 0.061. For G16P, the abundance fitness was -1.18 ± 0.084. Work on G16Y yielded an abundance fitness of -0.83 ± 0.11. G16N showed an abundance fitness of -0.186 ± 0.078. For G16E, the abundance fitness was 0.019 ± 0.087. Variant P25I has an abundance fitness of -0.15 ± 0.051. Work on P25L yielded an abundance fitness of -0.163 ± 0.044. In the case of P25R, the abundance fitness is reported as 0.032 ± 0.058. For P25F, the abundance fitness was -0.167 ± 0.077. In the case of P25Q, the abundance fitness is reported as -0.209 ± 0.077. Work on P25N yielded an abundance fitness of -0.303 ± 0.072. For P25H, the abundance fitness was -0.024 ± 0.045. Variant P25C has an abundance fitness of -0.087 ± 0.051. In the case of P25V, the abundance fitness is reported as -0.18 ± 0.048. P25S showed an abundance fitness of -0.1 ± 0.056. For P25G, the abundance fitness was -0.106 ± 0.072. P25A gave an abundance fitness of -0.124 ± 0.079. Variant P25M has an abundance fitness of -0.167 ± 0.054. For P25W, the abundance fitness was -0.061 ± 0.087. For P25E, the abundance fitness was -0.28 ± 0.15. P25D gave an abundance fitness of -0.172 ± 0.089. Work on P25K yielded an abundance fitness of -0.078 ± 0.055. With S26F the abundance fitness was -0.039 ± 0.06. Work on S26V yielded an abundance fitness of -0.132 ± 0.063. In the case of S26E, the abundance fitness is reported as 0.015 ± 0.052. In the case of S26G, the abundance fitness is reported as 0.029 ± 0.059. Work on S26H yielded an abundance fitness of 0.021 ± 0.07. S26W gave an abundance fitness of -0.11 ± 0.068. For S26C, the abundance fitness was -0.05 ± 0.045. In the case of S26A, the abundance fitness is reported as 0.104 ± 0.066. Variant S26M has an abundance fitness of 0.132 ± 0.052. In the case of S26Q, the abundance fitness is reported as 0.08 ± 0.072. With S26N the abundance fitness was -0.073 ± 0.08. S26L showed an abundance fitness of -0.088 ± 0.048. S26P showed an abundance fitness of -0.625 ± 0.067. In the case of S26R, the abundance fitness is reported as 0.003 ± 0.042. For S26K, the abundance fitness was -0.324 ± 0.049. In the case of S26Y, the abundance fitness is reported as -0.103 ± 0.071. C24Q gave an abundance fitness of -0.907 ± 0.078. Variant C24R has an abundance fitness of -0.629 ± 0.061. In the case of C24I, the abundance fitness is reported as -0.706 ± 0.061. C24F showed an abundance fitness of -1.01 ± 0.12. C24H gave an abundance fitness of -0.909 ± 0.097. With C24T the abundance fitness was -0.862 ± 0.079. C24M showed an abundance fitness of -0.944 ± 0.058. With C24K the abundance fitness was -0.702 ± 0.048. For C24Y, the abundance fitness was -0.696 ± 0.1. In the case of C24G, the abundance fitness is reported as -0.894 ± 0.073. In the case of C24L, the abundance fitness is reported as -0.816 ± 0.047. C24E gave an abundance fitness of -1.09 ± 0.16. C24A gave an abundance fitness of -0.739 ± 0.05. C24V gave an abundance fitness of -0.617 ± 0.054. For C24S, the abundance fitness was -0.788 ± 0.064. For C24W, the abundance fitness was -0.905 ± 0.11. For C24P, the abundance fitness was -0.819 ± 0.064. C24N showed an abundance fitness of -0.881 ± 0.11. R10C showed an abundance fitness of 0.003 ± 0.077. Work on R10Q yielded an abundance fitness of 0.086 ± 0.066. Variant R10A has an abundance fitness of -0.17 ± 0.042. Work on R10M yielded an abundance fitness of -0.301 ± 0.074. R10P gave an abundance fitness of -0.274 ± 0.049. With R10L the abundance fitness was -0.021 ± 0.043. In the case of R10K, the abundance fitness is reported as 0.124 ± 0.045. R10G showed an abundance fitness of -0.349 ± 0.062. For R10Y, the abundance fitness was -0.009 ± 0.064. Variant R10T has an abundance fitness of 0.028 ± 0.061. With R10F the abundance fitness was 0.059 ± 0.043. Variant R10E has an abundance fitness of -0.07 ± 0.09. Variant R10I has an abundance fitness of -0.014 ± 0.056. In the case of R10H, the abundance fitness is reported as -0.137 ± 0.051. R10W gave an abundance fitness of 0.122 ± 0.088. Variant R10D has an abundance fitness of -0.142 ± 0.087. For R10N, the abundance fitness was 0.003 ± 0.044. With R10V the abundance fitness was -0.056 ± 0.058. Work on D22I yielded an abundance fitness of -0.399 ± 0.077. For D22R, the abundance fitness was -0.058 ± 0.059. D22P gave an abundance fitness of -0.095 ± 0.045. For D22T, the abundance fitness was 0.074 ± 0.047. For D22Y, the abundance fitness was -0.112 ± 0.066. For D22H, the abundance fitness was -0.02 ± 0.052. Work on D22N yielded an abundance fitness of -0.085 ± 0.065. D22A showed an abundance fitness of 0.032 ± 0.051. For D22F, the abundance fitness was 0.005 ± 0.057. Variant D22V has an abundance fitness of -0.159 ± 0.046. For D22G, the abundance fitness was -0.011 ± 0.05. In the case of D22E, the abundance fitness is reported as -0.055 ± 0.093. In the case of D22Q, the abundance fitness is reported as -0.067 ± 0.072. For D22K, the abundance fitness was 0.129 ± 0.053. D22W gave an abundance fitness of -0.254 ± 0.08. Variant D22L has an abundance fitness of -0.067 ± 0.04. D22M showed an abundance fitness of -0.26 ± 0.072. With T23L the abundance fitness was -0.195 ± 0.053. Variant T23K has an abundance fitness of -0.031 ± 0.065. T23C showed an abundance fitness of -0.074 ± 0.088. Work on T23H yielded an abundance fitness of -0.107 ± 0.076. In the case of T23N, the abundance fitness is reported as 0.093 ± 0.067. Variant T23A has an abundance fitness of -0.119 ± 0.074. In the case of T23Q, the abundance fitness is reported as -0.07 ± 0.066. In the case of T23V, the abundance fitness is reported as -0.075 ± 0.072. T23W showed an abundance fitness of -0.2 ± 0.044. T23D showed an abundance fitness of -0.305 ± 0.11. For T23P, the abundance fitness was -0.738 ± 0.053. T23I showed an abundance fitness of -0.042 ± 0.042. T23M gave an abundance fitness of -0.077 ± 0.067. T23Y showed an abundance fitness of -0.084 ± 0.058. With T23S the abundance fitness was -0.044 ± 0.049. T23E showed an abundance fitness of 0.047 ± 0.083. Work on T23R yielded an abundance fitness of 0.038 ± 0.063. For T23F, the abundance fitness was -0.221 ± 0.077. For C12V, the abundance fitness was -0.7 ± 0.063. With C12H the abundance fitness was -0.83 ± 0.074. For C12R, the abundance fitness was -0.931 ± 0.045. With C12G the abundance fitness was -0.53 ± 0.046. Variant C12T has an abundance fitness of -0.769 ± 0.045. In the case of C12Y, the abundance fitness is reported as -0.557 ± 0.089. For C12F, the abundance fitness was -0.896 ± 0.084. In the case of C12Q, the abundance fitness is reported as -0.928 ± 0.092. Work on C12N yielded an abundance fitness of -0.663 ± 0.051. With C12W the abundance fitness was -0.822 ± 0.051. Variant C12P has an abundance fitness of -1.12 ± 0.052. With C12K the abundance fitness was -0.607 ± 0.07. Variant C12M has an abundance fitness of -1.19 ± 0.074. C12E gave an abundance fitness of -0.124 ± 0.1. With C12L the abundance fitness was -1.11 ± 0.06. Variant C12S has an abundance fitness of -0.971 ± 0.058. With C12D the abundance fitness was -0.749 ± 0.1. Variant C12A has an abundance fitness of -0.74 ± 0.06. In the case of C12I, the abundance fitness is reported as -0.73 ± 0.048. For L18Y, the abundance fitness was -0.751 ± 0.055. With L18H the abundance fitness was -0.66 ± 0.079. L18E gave an abundance fitness of -0.744 ± 0.1. Variant L18A has an abundance fitness of -0.682 ± 0.09. With L18I the abundance fitness was -0.357 ± 0.068. For L18K, the abundance fitness was -0.517 ± 0.1. For L18V, the abundance fitness was -0.117 ± 0.052. For L18G, the abundance fitness was -0.732 ± 0.093. L18P showed an abundance fitness of -1.07 ± 0.072. Work on L18F yielded an abundance fitness of -0.581 ± 0.068. With L18S the abundance fitness was -0.717 ± 0.061. For L18C, the abundance fitness was -0.761 ± 0.15. With L18T the abundance fitness was -0.373 ± 0.051. Work on L18N yielded an abundance fitness of -0.489 ± 0.07. Work on L18R yielded an abundance fitness of -0.394 ± 0.05. Variant L18M has an abundance fitness of 0.037 ± 0.051. Variant L18W has an abundance fitness of -0.738 ± 0.054. L18D gave an abundance fitness of -1.3 ± 0.39. L18Q showed an abundance fitness of -0.397 ± 0.071. C21G showed an abundance fitness of -0.722 ± 0.054. In the case of C21R, the abundance fitness is reported as -0.762 ± 0.052. Work on C21I yielded an abundance fitness of -0.853 ± 0.066. In the case of C21V, the abundance fitness is reported as -1.05 ± 0.088. Variant C21T has an abundance fitness of -0.902 ± 0.079. Variant C21K has an abundance fitness of -0.795 ± 0.059.
